# Reference: paper doi:10.1101/2025.03.03.641048
# B1: mouse ZP2 N-terminal ZP-N1 domain (mZP2-N1), His-tagged (domain or fragment)
# chain: VSLPQSENPAFPGTLICDKDEVRIEFSSRFDMEKWNPSVVDTLGSEILNCTYALDLERFVLKFPYETCTIKVVGGYQVNIRVGDTTTDVRYKDDMYHFFCPAIQ
# Biological target: IE-3 fragment antigen-binding (Fab) region, recombinant, labelled
# Test: MST
binder,measurement,value
B1,fold higher affinity than MBP-mZP2(T103-Q138),30 fold
